Each block holds one binder with its values, some of them ahead of it. Starred links: 1 amine or outer side, 2 acyl side, 3 side chain; linkers in the order of their positions; H or OH if unused. Positions of bridges follow the written chain, without caps; N, C: chain ends. Non-standard residues stand in square brackets, D forms with d. Primed or numbered codes have the meaning given here. *: point of attachment. B5(10) = 2-amino-2-(pent-4-en-1-yl)hept-6-enoic acid, bis(4-pentenyl)glycine, stitching residue bearing both staples, C=CCCCC(CCCC=C)(N[*:1])C(=O)[*:2]; PyrS2″ = (S)-3-amino-1-((pent-4-en-1-yloxy)carbonyl)pyrrolidine-3-carboxylic acid (stapling residue), C=CCCCOC(=O)N1CC[C@@](N[*:1])(C(=O)[*:2])C1; B5(16) = 2-amino-2-(pent-4-en-1-yl)hept-6-enoic acid = 2,2-bis(4-pentenyl)glycine (stitching residue), C=CCCCC(CCCC=C)(N[*:1])C(=O)[*:2]; B5(23) = 2-amino-2-(pent-4-en-1-yl)hept-6-enoic acid (2,2-bis(4-pentenyl)glycine), stitching residue, C=CCCCC(CCCC=C)(N[*:1])C(=O)[*:2]; B5(5) = 2,2-bis(4-pentenyl)glycine, 2-amino-2-(pent-4-en-1-yl)hept-6-enoic acid (stitching residue), C=CCCCC(CCCC=C)(N[*:1])C(=O)[*:2]; B5(21) = 2-amino-2-(pent-4-en-1-yl)hept-6-enoic acid, bis(4-pentenyl)glycine (stitching residue), C=CCCCC(CCCC=C)(N[*:1])C(=O)[*:2]; PyrS2 = (S)-3-amino-1-((pent-4-en-1-yloxy)carbonyl)pyrrolidine-3-carboxylic acid, C=CCCCOC(=O)N1CC[C@@](N[*:1])(C(=O)[*:2])C1; B5(3) = 2,2-bis(4-pentenyl)glycine (stitching residue), C=CCCCC(CCCC=C)(N[*:1])C(=O)[*:2]; Bta = N[C@@H](Cc1csc2ccccc12)C(=O)O; αAllylPro = C=CC[C@@]1(C(=O)O)CCCN1; tBuAla = CC(C)(C)C[C@H](N)C(=O)O; 3Thi = N[C@@H](Cc1ccsc1)C(=O)O; Cha = N[C@@H](CC1CCCCC1)C(=O)O; S8 = C=CCCCCCC[C@](C)(N)C(=O)O; Ms = CS(=O)(=O)*
Key:
[1] = biological target: T1, full-length beta-Catenin (Uniprot ID P35222) (Homo sapiens (Human), UniProt P35222 2-781); assay: fluorescence polarization competition; full-length beta-catenin + 5FAM-TCF4(10-53) probe; peptide titrated
T1 construct: The fluorescence polarization protocol says only 'full-length'; also called bCat; B-Catenin
T1 sequence: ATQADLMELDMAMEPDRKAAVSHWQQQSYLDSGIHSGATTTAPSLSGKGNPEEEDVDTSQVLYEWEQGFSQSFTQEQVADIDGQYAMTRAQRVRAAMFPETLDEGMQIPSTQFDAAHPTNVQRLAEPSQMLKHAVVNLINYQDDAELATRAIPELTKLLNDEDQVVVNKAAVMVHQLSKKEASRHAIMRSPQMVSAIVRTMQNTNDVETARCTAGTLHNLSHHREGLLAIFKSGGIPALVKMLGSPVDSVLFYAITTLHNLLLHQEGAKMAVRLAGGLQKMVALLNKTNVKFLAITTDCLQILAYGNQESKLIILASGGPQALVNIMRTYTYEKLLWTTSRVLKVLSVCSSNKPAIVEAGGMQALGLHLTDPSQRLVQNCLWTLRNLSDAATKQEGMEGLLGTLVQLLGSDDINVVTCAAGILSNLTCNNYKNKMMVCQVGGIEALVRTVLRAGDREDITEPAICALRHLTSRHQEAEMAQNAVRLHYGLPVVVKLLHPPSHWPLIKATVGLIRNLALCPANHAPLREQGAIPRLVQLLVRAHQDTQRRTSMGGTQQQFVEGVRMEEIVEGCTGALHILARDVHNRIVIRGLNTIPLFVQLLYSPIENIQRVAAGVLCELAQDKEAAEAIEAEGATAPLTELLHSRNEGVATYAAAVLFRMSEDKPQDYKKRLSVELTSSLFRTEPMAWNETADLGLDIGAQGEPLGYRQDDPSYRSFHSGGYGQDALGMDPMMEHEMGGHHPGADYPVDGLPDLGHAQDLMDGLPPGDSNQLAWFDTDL
Procedure: (§1) The plate was incubated protected from light for 60 minutes at 20° C. prior to read. Reads were performed on a CLARIOstar plate reader (BMG Labtech) in duplicate, and data were fitted to a 1:1 binding model with hill slope using an in-house script. All provided concentrations are final concentrations.

[2] = biological target: T2, B-cat-Halo (beta-catenin HaloTag NanoBRET construct expressed in HEK293 cells) (UniProt P35222 1-781); assay: cell-based or functional assay
T2 sequence (looked up): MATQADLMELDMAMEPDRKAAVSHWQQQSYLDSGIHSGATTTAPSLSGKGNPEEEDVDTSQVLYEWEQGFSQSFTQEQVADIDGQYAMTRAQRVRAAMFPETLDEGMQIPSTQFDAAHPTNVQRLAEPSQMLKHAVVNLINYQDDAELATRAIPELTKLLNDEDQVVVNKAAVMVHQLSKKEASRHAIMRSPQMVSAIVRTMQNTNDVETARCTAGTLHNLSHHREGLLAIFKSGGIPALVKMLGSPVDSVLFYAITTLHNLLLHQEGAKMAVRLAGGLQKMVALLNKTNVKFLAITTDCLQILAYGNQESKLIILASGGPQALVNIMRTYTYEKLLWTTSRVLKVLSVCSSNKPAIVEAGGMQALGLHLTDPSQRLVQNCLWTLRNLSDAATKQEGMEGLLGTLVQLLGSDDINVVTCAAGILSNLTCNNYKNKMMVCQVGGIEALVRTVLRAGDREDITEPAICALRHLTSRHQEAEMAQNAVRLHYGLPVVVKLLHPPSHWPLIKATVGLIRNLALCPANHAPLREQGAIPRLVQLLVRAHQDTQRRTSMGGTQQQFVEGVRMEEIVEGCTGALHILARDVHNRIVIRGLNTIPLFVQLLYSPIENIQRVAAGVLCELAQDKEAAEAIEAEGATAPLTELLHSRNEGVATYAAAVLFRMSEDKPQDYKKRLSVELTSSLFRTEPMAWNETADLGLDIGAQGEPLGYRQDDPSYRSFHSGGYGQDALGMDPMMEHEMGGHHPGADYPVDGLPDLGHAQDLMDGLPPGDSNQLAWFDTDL

[3] = biological target: T3, full-length beta-Catenin (Uniprot ID P35222) (Homo sapiens (Human), UniProt P35222 2-781); assay: fluorescence polarization competition; full-length beta-catenin + 5FAM-TCF4 10-53 probe
T3 construct: The FP protocol says 'full-length beta-Catenin (Uniprot ID P35222)'; also called bCat; B-Catenin
T3 sequence: T1 sequence
Procedure: as §1

[4] = biological target: T4, beta-catenin in DLD1 TCF/LEF luciferase reporter cells (UniProt P35222 1-781); assay: cell-based or functional assay
T4 sequence (looked up): T2 sequence (looked up)

B-cat-Halo = biological target: T5, B-cat-Halo (UniProt P35222 1-781); assay: cell-based or functional assay
T5 sequence (looked up): T2 sequence (looked up)

[5] = biological target: T6, full-length beta-Catenin (Uniprot ID P35222) (Homo sapiens (Human), UniProt P35222 1-781); assay: fluorescence polarization competition; displacement of 5FAM-TCF4(10-53) from full-length beta-catenin
T6 construct: also called bCat; B-Catenin
T6 sequence: T2 sequence (looked up)
In short: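 Fluorescence polarization was read in duplicate after the plate sat 60 minutes at 20° C. shielded from light. Values come from fitting to a 1:1 binding model with hill slope.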

[6] = biological target: T7, B-cat-Halo (beta-catenin HaloTag fusion expressed in HEK293 cells) (UniProt P35222 1-781); assay: cell-based or functional assay
T7 sequence (looked up): T2 sequence (looked up)

[7] = biological target: T8, B-cat-Halo (beta-catenin HaloTag NanoBRET construct expressed in HEK293 cells) (UniProt P35222 1-781, HaloTag labelled with HaloTag NanoBRET 618 Ligand); assay: cell-based or functional assay
T8 sequence (looked up): T2 sequence (looked up)

[8] = biological target: T9, full-length beta-Catenin (Uniprot ID P35222) (Homo sapiens (Human), UniProt P35222 2-781); assay: fluorescence polarization competition; 10 nM full-length beta-catenin + 10 nM 5FAM-TCF4(10-53) probe, peptide titrated
T9 construct: also called bCat; B-Catenin
T9 sequence: T1 sequence
Procedure: as §1

EC50 [1]: 88 nM
B1: I-711 (peptide)
peptide: Ms-[αAllylPro]DI[B5(5)]DEAAFQ[S8]F[Bta]Q-NH2
modifications: staple 1-4, 4-11
notes: Stapled peptide composition; Later-eluting HPLC isomer peak (I-710 is the earlier one); also called MeSO2-PL3-Asp-Ile-B5-Asp-Glu-Ala-Ala-Phe-Gln-S8-Phe-BztA-Gln-NH2

NanoBRET Abs IC50 [2]: > 20000 nM
B2: I-462 (peptide)
peptide: Ac-[αAllylPro]DA[B5(21)]DEAAFN[PyrS2″]F[Bta]Q-NH2
modifications: staple 1-4, 4-11

IC50 [3]: 10000 nM
B3: I-1295 (peptide)
peptide: Ac-[αAllylPro]DA[B5(10)]NTAAFL[PyrS2]F[Bta]Q-NH2
modifications: staple 1-4, 4-11; not fully specified; printed as Ac-PL3-Asp-Ala-B5-Asn-Thr-Ala-Ala-Phe-Leu-PyrS2-Phe-BztA-Gln-NH2
notes: earlier eluting HPLC peak (staple isomer composition); also called Ac-PL3-Asp-Ala-B5-Asn-Thr-Ala-Ala-Phe-Leu-PyrS2-Phe-BztA-Gln-NH2

EC50 [1]: 73 nM
B4: I-710 (peptide)
peptide: Ms-[αAllylPro]DI[B5(5)]DEAAFQ[S8]F[Bta]Q-NH2
modifications: staple 1-4, 4-11
notes: Stapled peptide composition; also called MeSO2-PL3-Asp-Ile-B5-Asp-Glu-Ala-Ala-Phe-Gln-S8-Phe-BztA-Gln-NH2

DLD1 reporter assay Abs IC50 [4]: 3400 nM
B5: I-807 (peptide)
peptide: Ac-[αAllylPro]D[tBuAla][B5(3)]DDAAFF[PyrS2″][3Thi][Bta]Q-NH2
modifications: staple 1-4, 4-11

NanoBRET % inh @ 10 uM (B-cat-Halo): 8.9%
EC50 [5]: 37 nM
B6: I-567 (peptide)
peptide: XDVXDDAAFNXFXQ
modifications: not fully specified; Ac-PL3-Asp-Val-B5-Asp-Asp-Ala-Ala-Phe-Asn-S8-Phe-BztA-Gln-NH2; N-terminal acetyl, C-terminal amide; non-natural: PL3(1), B5(4), S8(11), BztA(13); staples PL3(1)-B5(4) and B5(4)-S8(11)

NanoBRET Abs IC50 [6]: 12000 nM
B7: I-620 (peptide)
peptide: Ac-[αAllylPro]D[Cha][B5(16)]DEAAFN[S8]F[Bta]Q-NH2
modifications: staple 1-4, 4-11; also: later-eluting staple isomer composition

NanoBRET % inh @ 10 uM [7]: 55.1%
EC50 [8]: 30 nM
B8: I-407 (peptide)
peptide: Ac-[αAllylPro]DI[B5(23)]DEAAFQ[S8]F[Bta]Q-NH2
modifications: staple 1-4, 4-11
notes: Stapled (stitched) peptide
